Reference: article PMC8268162, “A Master Regulator BrpR Coordinates the Expression of Multiple Loci for Robust Biofilm and Rugose Colony Development in Vibrio vulnificus”

Biological target: T1, BrpR-His6
T1 chain: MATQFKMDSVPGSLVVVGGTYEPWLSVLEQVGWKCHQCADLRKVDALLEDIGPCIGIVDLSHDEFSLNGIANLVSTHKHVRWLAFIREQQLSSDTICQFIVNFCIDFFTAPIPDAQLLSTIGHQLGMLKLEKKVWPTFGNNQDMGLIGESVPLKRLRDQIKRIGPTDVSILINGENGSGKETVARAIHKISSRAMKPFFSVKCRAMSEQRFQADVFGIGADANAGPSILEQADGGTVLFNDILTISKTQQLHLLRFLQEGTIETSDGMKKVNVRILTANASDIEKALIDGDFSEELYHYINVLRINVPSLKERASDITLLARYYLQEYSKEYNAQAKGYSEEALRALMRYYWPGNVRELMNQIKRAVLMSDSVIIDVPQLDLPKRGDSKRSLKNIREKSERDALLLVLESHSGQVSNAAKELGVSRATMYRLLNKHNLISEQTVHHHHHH
Experiment: EMSA; 50 uM c-di-GMP; 40 mM Tris-Cl pH 7.9, 100 mM KCl, 10 mM MgCl2, 1 mM DTT, 0.1 mM EDTA, 0.1 ug/ul BSA, 0.1 ug poly(dI-dC) in 20 ul, 25 min at 30 C; EMSA DNA 5 nM, footprinting DNA 40 nM
Conditions: protein: recombinant; tags: C-terminal His6; label: 6-FAM on reverse strand; blunt

B1: BRPBwt (dsDNA)
DNA 1: GTTTGCAATGTCTCATTGGTGCGACGAATGCTTTGGCG
DNA 2: CGCCAAAGCATTCGTCGCACCAATGAGACATTGCAAAC
  binding result: binds
